Consider four molecules from US20150218594A1, “CELL-FREE AND MINIMIZED METABOLIC REACTION CASCADES FOR THE PRODUCTION OF CHEMICALS” (CLARIANT PRODUKTE (DEUTSCHLAND) GMBH, priority 2012, published 2015).

A short description of series [1]: Enzyme temperature optimum. The class given is biochemical.
The nature of series [2]: Isobutanol tolerance of enzymes (I50). Format: biochemical.
Series [3] is described as follows: Ethanol tolerance of enzymes (E50). The class given is biochemical. The settings on record: 45° C.
The nature of series [4]: GDH activity assay (oxidation of D-glucose to gluconate, NAD reduction). The settings on record: natural substrate. The class given is biochemical. The procedure: (§1) (J. Mol. Catal. B-Enzym. 2009, 61, 30-35).
GDH activity: GDH activity was assayed at 50° C. by oxidizing D-glucose to gluconate, whereby the coenzyme NAD is reduced to NADH. Assay mixture contained 50 mM HEPES (pH 7), 2 mM NAD and 50 mM D-glucose. (J. Biol. Chem. 2006, 281, 14796-14804)

Series [5] is described as follows: Enzyme half-life at 50° C.
For series [6] the following is noted: Table 2, value with literature reference; cited from earlier work.
The nature of series [7]: ALS activity (pyruvate consumption). Format: biochemical. The settings on record: natural substrate. The method, then: as §1
ALS activity: ALS activity was determined by following pyruvate consumption at 50° C. Reaction mixtures contained 25 mM HEPES (pH 7), 0.1 mM thiamine-pyrophosphate, 2.5 mM MgCl2, 15 mM sodium pyruvate. Pyruvate concentration in the samples was determined via lactate dehydrogenase as described elsewhere. (Biochem. J. 2007, 403, 421-430)

A short description of series [8]: KDC activity (decarboxylation of 2-ketoisovalerate). The class given is biochemical. The settings on record: natural substrate. The method, then:
as §1
KDC activity: KDC activity was assayed by following the decarboxylation of 2-ketoisovalerate to isobutyraldehyde at 50° C. and 340 nm. Assay mixture contained 50 mM HEPES (pH 7), 0.1 mM thiamine-pyrophosphate, 2.5 mM MgCl2 and 60 mM 2-ketoisovalerate. Decarboxylation rate was calculated using the molar extinction coefficient of 2-ketoisovalerate (s=0.017 L mmol-1 cm-1). (J. Mol. Catal. B-Enzym. 2009, 61, 30-35)

Series [9] in a line: KARI activity (NADH consumption, acetolactate to 2,3-dihydroxy isovalerate). Format: biochemical. The settings on record: natural substrate. The method, then: as §1
KARL activity: KARI activity was assayed by following the NADH consumption connected to the conversion of acetolactate to 2,3-dihydroxy isovalerate at 50° C. Assay mixture contained 5 mM acetolactate, 0.3 mM NADH, 10 mM MgCl2 and 50 mM HEPES, pH 7.

Where two headings read alike, the source gives them in different places.

B1: GDH: Glucose dehydrogenase GDH (EC 1.1.1.47), Sulfolobus solfataricus, NP 344316.1, Seq ID 02 (protein)
chain: MKAIIVKPPNAGVQVKDVDEKKLDSYGKIKIRTIYNGICGTDREIVNGKLTLSTLPKGKDFLVLGHEAIGVVEESYHGFSQGDLVMPVNRRGCGICRNCLVGRPDFCETGEFGEAGIHKMDGFMREWWYDDPKYLVKIPKSIEDIGILAQPLADIEKSIEEILEVQKRVPVWTCDDGTLNCRKVLVVGTGPIGVLFTLLFRTYGLEVWMANRREPTEVEQTVIEETKTNYYNSSNGYDKLKDSVGKFDVIIDATGADVNILGNVIPLLGRNGVLGLFGFSTSGSVPLDYKTLQEIVHTNKTIIGLVNGQKPHFQQAVVHLASWKTLYPKAAKMLITKTVSINDEKELLKVLREKEHGEIKIRILWESGRPVLGSSHHHHHH
modifications: Glucose dehydrogenase (EC 1.1.1.47), Sulfolobus solfataricus Protein sequence including C-terminal His-Tag
On to B1, for which the T-Optimum in series [1] (Table 1) was 70 50 °C; in series [1] (Table 2) it was 70 °C. Besides, the “I50: Isobutanol concentration which causes loss of 50% activity” value in series [2] (45° C.) was 9 (45° C.) % v/v. Also, in [3], the “E50: Ethanol concentration which causes loss of 50% activity” value is recorded as 30 (45° C.) % v/v. Besides, in series [4], the “Activity, 50° C.” value came to 15 U/mg.

B2: ALS: Acetolactate synthase ALS (EC 2.2.1.6), Bacillus subtilis, Seq ID 12 (protein, listed as Bacillus subtilis)
chain: MLTKATKEQKSLVKNRGAELVVDCLVEQGVTHVFGIPGAKIDAVFDALQDKGPEIIVARHEQNAAFMAQAVGRLTGKPGVVLVTSGPGASNLATGLLTANTEGDPVVALAGNVIRADRLKRTHQSLDNAALFQPITKYSVEVQDVKNIPEAVTNAFRIASAGQAGAAFVSFPQDVVNEVTNTKNVRAVAAPKLGPAADDAISAAIAKIQTAKLPVVLVGMKGGRPEAIKAVRKLLKKVQLPFVETYQAAGTLSRDLEDQYFGRIGLFRNQPGDLLLEQADVVLTIGYDPIEYDPKFWNINGDRTIIHLDEIIADIDHAYQPDLELIGDIPSTINHIEHDAVKVEFAEREQKILSDLKQYMHEGEQVPADWKSDRAHPLEIVKELRNAVDDHVTVTCDIGSHAIWMSRYFRSYEPLTLMISNGMQTLGVALPWAIGASLVKPGEKVVSVSGDGGFLFSAMELETAVRLKAPIVHIVWNDSTYDMVAFQQLKKYNRTSAVDFGNIDIVKYAESFGATGLRVESPDQLADVLRQGMNAEGPVIIDVPVDYSDNINLASDKLPKEFGELMKTKALL
Consider B2, for which the “Half-life, 50° C.” value in [5] came out at 12 h. For the same molecule, the T-Optimum in series [6] was 37^[4] ° C. Besides, in series [2] (50° C.), the “I50: Isobutanol concentration which causes loss of 50% activity” value is 4 (50° C.) % v/v. Further, the “Activity, 50° C.” value in series [7] is given as 30 U/mg.

B3: KDC: Branched-chain-2-oxo acid decarboxylase KDC (EC 4.1.1.72), Lactococcus lactis, Seq ID 16 (protein)
chain: MGSSHHHHHHSSGLVPRGSHMASMYTVGDYLLDRLHELGIEEIFGVPGDYNLQFLDQIISREDMKWIGNANELNASYMADGYARTKKAAAFLTTFGVGELSAINGLAGSYAENLPVVEIVGSPTSKVQNDGKFVHHTLADGDFKHFMKMHEPVTAARTLLTAENATYEIDRVLSQLLKERKPVYINLPVDVAAAKAEKPALSLEKESSTTNTTEQVILSKIEESLKNAQKPVVIAGHEVISFGLEKTVTQFVSETKLPITTLNFGKSAVDESLPSFLGIYNGKLSEISLKNFVESADFILMLGVKLTDSSTGAFTHHLDENKMISLNIDEGIIFNKVVEDFDFRAVVSSLSELKGIEYEGQYIDKQYEEFIPSSAPLSQDRLWQAVESLTQSNETIVAEQGTSFFGASTIFLKSNSRFIGQPLWGSIGYTFPAALGSQIADKESRHLLFIGDGSLQLTVQELGLSIREKLNPICFIINNDGYTVEREIHGPTQSYNDIPMWNYSKLPETFGATEDRVVSKIVRTENEFVSVMKEAQADVNRMYWIELVLEKEDAPKLLKKMGKLFAEQNK
modifications: Branched-chain ketoacid decarboxylase (EC 4.1.1.72), Lactococcus lactis Protein sequence including N-terminal His-Tag
Take B3: the “Half-life, 50° C.” value in series [5] is greater than 24 h. Further, the T-Optimum in series [6] was 50^[5] ° C. The “Activity, 50° C.” value in series [8] came out at 150 U/mg. Moreover, the “I50: Isobutanol concentration which causes loss of 50% activity” value in series [2] (45° C.) is recorded as 4 (45° C.) % v/v.

B4: KARI: Ketol-acid reductoisomerase KARI (EC 1.1.1.86), Meiothermus ruber, Seq ID 14 (protein)
chain: MKIYYDQDADIGFIKDKTVAILGFGSQGHAHALNLRDSGIKVVVGLRPGSRNEEKARKAGLEVLPVGEAVRRADVVMILLPDETQGAVYKAEVEPNLKEGAALAFAHGFNIHFGQIKPRRDLDVWMVAPKGPGHLVRSEYEKGSGVPSLVAVYQDASGSAFPTALAYAKANGGTRAGTIATTFKDETETDLFGEQTVLCGGLTQLIAAGFETLVEAGYPPEMAYFECLHEVKLIVDLIYESGFAGMRYSISNTAEYGDYTRGPMVINREETKARMREVLRQIQQGEFAREWMLENVVGQPTLNANRNYWKDHPIEQVGPKLRAMMPFLKSRFTKEEVGSSGRPVLGSSHHHHHH
modifications: Ketolacid reductoisomerase (EC 1.1.1.86), Meiothermus ruber Protein sequence including C-terminal His-Tag
Turning to B4, the T-Optimum in series [1] (Table 2) was determined as 55 °C. Besides, in series [5], the “Half-life, 50° C.” value was found to be 34 h. For the same molecule, in series [2] (40° C.), the “I50: Isobutanol concentration which causes loss of 50% activity” value was 8 (40° C.) % v/v. The “Activity, 50° C.” value in series [9] amounted to 0.7 U/mg.
